Experimental data published in patent US20040091453, “Pancreatic langerhans beta cell proliferation promoter and apoptosis inhibitor, and screening of candidate compounds for the e drugs” (published 2004).

Target: PARP (poly(ADP-ribose) polymerase), purified (Homo sapiens, UniProt P09874 P09874:2-1014)
Experiment: EMSA; 10 ng PARP; retarded band at position different from nuclear extract complex; room temperature, 2 mM MgCl2, 50 mM NaCl
Conditions: tags: Trevigen Inc; label: 32P
Experimental: Biophys. Acta, 1219, 241-243) and stored at −80° C. until use. GMSA was performed by the method of Garabedian (Garabedian, M. J. et al. Analysis of protein—DNA interactions in Gene Transcription: A practical approach (Hamesm, B. D., and Higgins, S. J. eds.), pp. 243-293, IRL Press, Oxford (1993)). The nuclear extract (10 μg) was incubated in a final volume of 20 μl of buffer containing 20 mM Tris-HCl (pH 7.9), 2 mM MgCl₂, 50 mM NaCl, 2 mM EDTA, 10% glycerol, 0.1% Nonidet P-40, 1 mM DTT, 50 μg/ml bovine serum albumin and 1 μg of poly(dI-dC). After incubation for 10 min at room temperature, 2.5 pmol of double-stranded DNA, previously labeled by an exchange reaction using MEGALABEL™ (Takara Shuzo) and [γ-³²P]ATP (Amersham Pharmacia Biotech), were added and incubated for 30 min at room temperature, then the binding reactions were resolved on pre-run 6% acrylamide gel. When competition experiments were conducted in the presence of 100-fold molar excess of cold probe, an unlabeled competitor was added with the labeled probe. In the supershift assay, 2 μg of anti-Sp1, -Sp2, -Sp3 or -Sp4 antibody (Santa Cruz) were added prior to the addition of the ³²P-probe. […] DNA was detected by immunoblot using an ECL 3′-oligolabelling and detection system (Amersham Pharmacia Biotech). […]

PARP (poly(ADP-ribose) polymerase), purified, sequence (P09874 2-1014, one chain of several): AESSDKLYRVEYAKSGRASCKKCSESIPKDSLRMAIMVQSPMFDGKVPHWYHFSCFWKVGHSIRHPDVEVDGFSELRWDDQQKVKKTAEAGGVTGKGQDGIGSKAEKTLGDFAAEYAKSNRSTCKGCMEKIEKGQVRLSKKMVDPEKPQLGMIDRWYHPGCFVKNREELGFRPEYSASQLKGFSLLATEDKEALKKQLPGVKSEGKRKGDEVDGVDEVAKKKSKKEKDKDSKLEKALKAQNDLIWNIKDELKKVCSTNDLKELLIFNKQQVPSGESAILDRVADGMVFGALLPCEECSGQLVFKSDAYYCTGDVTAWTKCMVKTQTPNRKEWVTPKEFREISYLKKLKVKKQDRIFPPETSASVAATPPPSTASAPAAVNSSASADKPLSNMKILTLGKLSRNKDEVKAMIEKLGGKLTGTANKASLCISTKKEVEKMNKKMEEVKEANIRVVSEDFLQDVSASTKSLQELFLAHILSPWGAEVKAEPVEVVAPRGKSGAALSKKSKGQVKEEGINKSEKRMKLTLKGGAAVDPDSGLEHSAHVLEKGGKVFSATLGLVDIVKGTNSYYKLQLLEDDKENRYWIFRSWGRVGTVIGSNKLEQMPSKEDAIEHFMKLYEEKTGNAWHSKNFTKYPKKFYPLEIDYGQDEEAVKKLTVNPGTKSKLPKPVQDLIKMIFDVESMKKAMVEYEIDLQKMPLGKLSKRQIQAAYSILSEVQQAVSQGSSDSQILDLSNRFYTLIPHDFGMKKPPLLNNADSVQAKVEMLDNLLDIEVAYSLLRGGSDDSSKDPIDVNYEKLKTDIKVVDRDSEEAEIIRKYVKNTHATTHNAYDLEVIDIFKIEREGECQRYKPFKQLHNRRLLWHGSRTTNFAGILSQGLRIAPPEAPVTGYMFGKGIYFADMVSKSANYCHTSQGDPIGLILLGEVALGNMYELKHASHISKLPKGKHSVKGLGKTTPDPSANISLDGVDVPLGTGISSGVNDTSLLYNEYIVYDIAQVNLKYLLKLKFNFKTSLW

B1: Probe 1 (rat Reg -86 to -65) (dsDNA)
DNA 1: TTCCTTGCCCCTCCCATTTTTC
DNA 2: GAAAAATGGGAGGGGCAAGGAA
binding result: binds
